To fix the notation:
B1: Azoarcus group I ribozyme (parent)
chain: GUGCCUUGCGCCGGGAAACCACGCAAGGGAUGGUGUCAAAUUCGGCGAAACCUAAGCGCCCGCCCGGGCGUAUGGCAACGCCGAGCCAAGCUUCGGCGCCUGCGCCGAUGAAGGUGUAGAGACUAGACGGCACCCACCUAAGGCAAACGCUAUGGUGAAGGCAUAGUCCAGGGAGUGGCGAAAGUCACACAAACCGG

This series covers variants of B1. Kind of series: reverse-splicing fitness (ratio to wild type); higher = more active; in vitro selection; Mg2+ level not given. The gist of the method: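 An in vitro group I ribozyme library with randomized positions was T7-transcribed and gel-purified. In triplicate, 10 pmol RNA in EPPS pH 7.5 was reacted with 50 pmoles of a 30-nt RNA substrate for 1 h at 37 °C across several added MgCl2 levels (1–48 mM), then stopped with EDTA. Products were reverse transcribed from a substrate-complementary primer, PCR-amplified and sequenced (HiSeq 4000). Fitness is a variant's read proportion after selection over that before, normalised to wild type.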
For C82A A111G A145G C150A C169A U176C, the reverse-splicing fitness was determined as 0.0215.
For C82A A111G A120U A145U C150A C169A the value was 0.00209; for C82A A111G A120U A145U C150A C169U, 0.00275.
The same measure for C82A A111G A120U A145U C150A C169G: 0.00258.
Regarding C82A A111G A120U A145U C150G U176A, the reverse-splicing fitness amounted to 0.0037.
For C82A A111G A120U A145U C150G U176G, the reverse-splicing fitness came to 0.0023.
Regarding C82A A111G A120U A145U C150G U176C, the reverse-splicing fitness was 0.00587.
In the case of C82A A111G A120U C150A C169A U176C, the reverse-splicing fitness worked out at 0.00319.
As for C82A A111G A120U C150A C169A U176G, the reverse-splicing fitness was found to be 0.00194.
The same measure for C82A A111G A120U C150A C169A U176A: 0.00499; for C82A A111G A120U A145G C150U C169A U176G: 0.00232.
C82A A111G A120U A145G C150U C169A U176A: the reverse-splicing fitness was 0.00727.
Regarding C82A A111G A120U A145G C150U C169A U176C, the reverse-splicing fitness came to 0.0045.
In the case of C82A A111G A120U A145G C150A C169G, the reverse-splicing fitness was determined as 0.00666.
The same measure for C82A A111G A120U A145G C150A C169U: 0.00455.
As to C82A A111G A120U A145G C150A C169A, the reverse-splicing fitness worked out at 0.00676.
The same measure for C82A A111G A120U A145G C150U U176G: 0.00409; for C82A A111G A120U A145G C150U U176C: 0.0133; for C82A A111G A120U A145G C150U U176A: 0.0096.
For C82A A111G A145C C150G C169G U176C the value was 0.00679; for C82A A111G A145C C150G C169G U176G, 0.00649; for C82A A111G A145C C150G C169G U176A, 0.0093.
For C82A A111G A145G C169A U176C the value was 0.0253; for C82A A111G A145G C169A U176A, 0.0201.
In the case of C82A A111G A145G C169A U176G, the reverse-splicing fitness was found to be 0.00591.
The same measure for C82A A111G A120U A145U C150U C169U U176G: 0.00222; for C82A A111G A120U A145U C150U C169U U176C: 0.00305; for C82A A111G A120U A145U C150U C169U U176A: 0.00273.
The same measure for C82A A111G A120U A145G C150G C169G U176G: 0.00316.
The same measure for C82A A111G A120U A145G C150G C169G U176A: 0.00925.
For C82A A111G A120U A145G C150G C169G U176C, the reverse-splicing fitness worked out at 0.00646.
For the variant C82A A111G A120U A145U C169U, the reverse-splicing fitness is 0.00422.
The same measure for C82A A111G A120U A145U C169G: 0.00329; for C82A A111G A120U A145U C169A: 0.00232; for C82A A111G A120U C150A C169U U176G: 0.00235.
For C82A A111G A120U C150A C169U U176C the value was 0.00484.
The same measure for C82A A111G A120U C150A C169U U176A: 0.00585; for C82A A111G A120U A145G C150G U176A: 0.00592; for C82A A111G A120U A145G C150G U176C: 0.00835.
In the case of C82A A111G A120U A145G C150G U176G, the reverse-splicing fitness was determined as 0.00403.
The same measure for C82A A111G A145C C150G C169A U176C: 0.00805.
For C82A A111G A145C C150G C169A U176G the value was 0.00658.
For C82A A111G A145C C150G C169A U176A the value was 0.00847.
For C82A A111G A145C C150A C169G U176A, the reverse-splicing fitness is 0.0291.
For C82A A111G A145C C150A C169G U176G the value was 0.00722.
The same measure for C82A A111G A145C C150A C169G U176C: 0.0145.
The same measure for C82A A111G A145C C150U U176C: 0.0542.
On to C82A A111G A145C C150U U176A, for which the reverse-splicing fitness came out at 0.0434.
For C82A A111G A145C C150U U176G the value was 0.0154; for C82A A111G A120U A145U C150G C169U U176A, 0.00252.
In the case of C82A A111G A120U A145U C150G C169U U176C, the reverse-splicing fitness was found to be 0.00353.
The same measure for C82A A111G A120U A145U C150G C169U U176G: 0.0026.
For C82A A111G A145G C150G C169U U176A the value was 0.0112; for C82A A111G A145G C150G C169U U176G, 0.00825; for C82A A111G A145G C150G C169U U176C, 0.0123.
For C82A A111G A145G C150G C169A U176C the value was 0.0154.
On to C82A A111G A145G C150G C169A U176A, for which the reverse-splicing fitness was 0.0148.
The same measure for C82A A111G A145G C150G C169A U176G: 0.00909.
For C82A A111G A145C C150U C169G the value was 0.00745; for C82A A111G A145C C150U C169A, 0.00814; for C82A A111G A145C C150U C169U, 0.0104.
The same measure for C82A A111G A145C U176C: 0.248; for C82A A111G A145C U176A: 0.181.
As for C82A A111G A145C U176G, the reverse-splicing fitness was 0.0484.
The same measure for C82A A111G A120U A145G C169U U176G: 0.00173; for C82A A111G A120U A145G C169U U176C: 0.00338.
As for C82A A111G A120U A145G C169U U176A, the reverse-splicing fitness was determined as 0.00366.
The same measure for C82A A111G A120U C169A U176C: 0.00316; for C82A A111G A120U C169A U176G: 0.00152; for C82A A111G A120U C169A U176A: 0.00268.
For C82A A111G A120U C150U the value was 0.0201; for C82A A111G A120U C150A, 0.00855; for C82A A111G A120U C150G, 0.00849.
Turning to C82A A111G A120U A145G C150U C169G U176C, the reverse-splicing fitness was found to be 0.00643.
The same measure for C82A A111G A120U A145G C150U C169G U176A: 0.0115.
For C82A A111G A120U A145G C150U C169G U176G the value was 0.00249; for C82A A111G A145C C150G C169U, 0.00926.
For C82A A111G A145C C150G C169A the value was 0.00898.
In the case of C82A A111G A145C C150G C169G, the reverse-splicing fitness came out at 0.00702.
The same measure for C82A A111G A120U A145U C169U U176G: 0.00199.
As for C82A A111G A120U A145U C169U U176C, the reverse-splicing fitness was determined as 0.00256.
For C82A A111G A120U A145U C169U U176A the value was 0.00277; for C82A A111G A120U U176G, 0.00504; for C82A A111G A120U U176C, 0.0161.

For the origin of these results see the RNAGym collection of RNA variant scans (doi:10.1093/molbev/msab373).
